The data set deals with ALPG/P priming receptor of the AB-1013, AB-1014 and AB-1015 circuits.
Sequence of ALPG/P priming receptor of the AB-1013, AB-1014 and AB-1015 circuits (chain, as listed by the source): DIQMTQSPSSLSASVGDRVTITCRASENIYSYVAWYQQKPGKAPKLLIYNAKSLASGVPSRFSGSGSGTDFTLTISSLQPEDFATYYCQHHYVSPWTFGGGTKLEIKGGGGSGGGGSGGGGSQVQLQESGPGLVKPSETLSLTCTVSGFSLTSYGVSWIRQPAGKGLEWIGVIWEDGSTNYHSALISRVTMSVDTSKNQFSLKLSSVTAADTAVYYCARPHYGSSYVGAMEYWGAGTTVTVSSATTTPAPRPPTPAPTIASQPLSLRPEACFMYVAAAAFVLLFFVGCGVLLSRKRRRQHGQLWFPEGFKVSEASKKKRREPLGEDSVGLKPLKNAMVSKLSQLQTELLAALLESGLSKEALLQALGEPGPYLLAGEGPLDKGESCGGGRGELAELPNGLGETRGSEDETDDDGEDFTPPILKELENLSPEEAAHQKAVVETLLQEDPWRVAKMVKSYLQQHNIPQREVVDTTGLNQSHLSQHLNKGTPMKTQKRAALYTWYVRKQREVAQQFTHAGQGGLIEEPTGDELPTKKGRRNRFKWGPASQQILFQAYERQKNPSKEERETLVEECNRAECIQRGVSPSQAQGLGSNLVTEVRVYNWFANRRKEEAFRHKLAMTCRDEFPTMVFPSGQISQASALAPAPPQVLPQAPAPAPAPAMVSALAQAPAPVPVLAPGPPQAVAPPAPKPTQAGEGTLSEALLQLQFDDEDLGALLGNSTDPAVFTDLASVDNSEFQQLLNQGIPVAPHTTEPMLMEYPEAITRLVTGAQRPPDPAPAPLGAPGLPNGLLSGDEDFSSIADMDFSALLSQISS

B1: Alkaline Phosphatase, Germ Cell (ALPG) expressed on K562-ALPG and K562-ALPG/MSLN target cells (protein)
chain: IIPVEEENPDFWNRQAAEALGAAKKLQPAQTAAKNLIIFLGDGMGVSTVTAARILKGQKKDKLGPETFLAMDRFPYVALSKTYSVDKHVPDSGATATAYLCGVKGNFQTIGLSAAARFNQCNTTRGNEVISVMNRAKKAGKSVGVVTTTRVQHASPAGAYAHTVNRNWYSDADVPASARQEGCQDIATQLISNMDIDVILGGGRKYMFPMGTPDPEYPDDYSQGGTRLDGKNLVQEWLAKHQGARYVWNRTELLQASLDPSVTHLMGLFEPGDMKYEIHRDSTLDPSLMEMTEAALLLLSRNPRGFFLFVEGGRIDHGHHESRAYRALTETIMFDDAIERAGQLTSEEDTLSLVTADHSHVFSFGGYPLRGSSIFGLAPGKARDRKAYTVLLYGNGPGYVLKDGARPDVTESESGSPEYRQQSAVPLDGETHAGEDVAVFARGPQAHLVHGVQEQTFIAHVMAFAACLEPYTACDLAPRAGTTD
Consider B1, for which the “time to peak of ALPG-dependent CAR conversion” value is recorded as “reached a peak after around 100 hours of stimulation with the PrimeR antigen”.

(Values after patent publication US20250250350.)
